Source: the DeepSol protein solubility set

Assay: soluble on expression in E. coli; label from the status in PepcDB or PDB records

Soluble on expression in E. coli, soluble:
MSLIDAEHIEIALDKRYLRESYLPERALDDILDGQVIIETQGEQVGQVNGLTVIEVTGHPMPYGEPARISCVIHFGDGDIADVERKVELGGNLHAKGMMIMQAFVSSALNLDGSLPFSASIVFEQSYSEVDGDSASLAELCSLVSALSEYPIDQQIAVTGAVDQFGRVQAVGGLNEKIEGFYRVCCHQGLTGEQGVILPSSNLKHLALHKSVVESIKNGEFNIWPVSTVDEAIPLLMGKPFRGEDEDSVIAKIAERIDNFEKLVEGHHHHHH
MEDLDFPICILKMNLQCCEDFPSRVKKLLRQVKGVYAITIDPVKGLILVCGTAEPSVLIKAVAKLGQSPQLYAYEKDPATAKTRFRTLLKRYATNKTQDKPSPPAPPVTATTPVETCPAGGETFRGFGYPGPTTMMQMPAFSLPPPRGLPGWLAPPTNPRLKYEEPKVTPRKPPAPYPFDYYENLGFPPSDSLFNYFSDDNPQPCSIM
MSGNQMAMGSEQQQTVGSRTVSVEEVPAVLQLRATQDPPRSQEAMPTRHNVRWEENVIDNENMNKKKTKICCIFHPQNEDEEECNHHSDDDGSSSSGSSSSESENEKDLDFNERRQRRLERRHRKLEKKRSYSPNAYEIQPDYSEYRRKQQEKKDMGHHHHHHSH

Soluble on expression in E. coli, not soluble:
KGKKVILFAPTFRGSGHGTAHYPFFKIDFERLARYCEKNNAVVLFKMHPFVKNRLNIADKHKQYFVDVSDFREVNDILFITDLLISDYSSLIYEYAVFKKPMIFYAFDLEDYITTRDFYEPYESFVPGKIVQSFDALMDALDNEDYEGEKVIPFLDKHFKYQDGRSSERLVRNLFG
MGSDKIHHHHHHMERHNAIPIYDAELPLTSGVIPLVAGLTMPGCLRDASPDAWGRRVILNKRFGKTALQIDPGSIDELSYLIESGSDRIGALDFQRSPTEYIPRLASGAPLEELIKAAELVEKGVPLTPELAQALQHGTSIGGARPKALVQSDNHKFIAKFSTSTDLYSVVKAEFIAMKLALMAGLHVAPVNLLQVAGKDVLMVERFDRVAAPAGWQRKGIVSALTMLQLDEMMARYASYHDLANLVRQRFMRAPSTLRELFSRLAFNILIGNTDDHARNHAAFWDGRMLQLTPAYDICPQSRTGRTASQAMQISDGQNSSQITTCLKAAPHFLLNEAEAGLIIEGQIRCIEENWPTICEEADLSEIDRNLMWRNQVLNPFAFEGLEGSSLERLAKKYR
MAHHHHHHMIFVERQTDTENAAYLLAKMLGIHIRNIGMIHGGMQQRQRDYIMNGFKHSQTRILVATDVASRGIDFPDVTCVVNFIAPKSIDRYCHRIGRTGRAGRTGDSFTFIGHSDGCLAKDLVGYLKKCGMEVPQKLLDIAGKYVQYEEQRHLRRSWSGRSGRGFKRQKQDSPAPYQSSSW
GSDTPSNLMGKQQWKALVEEAIHSDWVKFRFQAAKNTWGKVFHNEVFSSIEKDGETYRANQYLFALEQLDATNIFDQYVIESMIKMLESGELNDPVAINIAQSSLSQPSFIRWTTNMLEKHSKVASKLHFEIPEECFIDHPHHTALLCNAIRQSGAEFGVDNYGRNFQSLEYIQEFRPNYVKLDYLFTHNLHDEKQKFTLTSISRTAHNLGITTIASRIETQIQLDFLTEHFVEVFQGFIVDKE
MGSDKIHHHHHHMSARNETGYERVLVPVGDKSDPNMLTELSSILVDPRRGAVRFTHVTTDRSFVGSQENWRTGSDSVAESQHTLREEGIESTGTIRTASSALDGILEEAEEYEADAILIGWTDKDSVSSLVDKLLRKAGCDVIVFSADRDPIDTDSILVPVVVKPDANRLQMLAIMSQRTGASITFTYVTGDEGTDEEGRGLLDQSAERLAEYGVQAETELKSASSAVDALGQLSEDYDVMVIGTSRGWWLRKTLFGRKTDKIAQEAQCSLLMHKWQGEVPPES
MGSDKIHHHHHHMLKHFGSKVRNLRVTRNITREDFCGDETELSVRQLARIESGQSIPNLTKAHYIAKQLNVKLDILTGGESLELPKRYKELKYLILRIPTYADAERLKLRECQFDHIFEEFYDNLPEDECLAIDSLQAKFEVYQTGDINFGVEVLCECFDKVKYKEKYTLNDLIIIDLFLTCAVVSKFNNRAFTKEVFQTICKTLISQNHKLTAEDLFWFNHVLLNCVFVGLCLNSEECLAEMLEVSRQTMVSTHDFHKMPLYFMYQWKYFITIDNDIKSAENAYQQSIMFSKMIDDKHLIKKLELEWQEDITGH
MITCLPLLAGEGARRKGDIGMRNKNKRLAQYATELRRNMTDAEYALWYHLRNKLFCGIRFNRQVIIGHYIVDFCSRKLKLVIELDGIQHVEQEQYDLERTKFLTAQGYKVIRFWNDEVLKNIDNVLEAIYVEIEHLSPPHFGSSPHKWVEPRLEVLK
MSLQSEKTEAVVTLGANLTKSERLQMLDAFGVKANEVKIIDVTNQDIREQLGLDTSKPIPASSQSISSSYVVVKDKGGINVTTNNLTEVTGSMLANALLTSGVNNADVKADAPFKVTGTAALAGILKGFEDASGEELSLPKKEAAREEISLTNNLSNAKTKDGQTLGKDEAAVVVNDIKTDVIKDKPKNDEEIGKIVNNVTNNYNILLTQGQQEQTIKFMSKINDLDYNYGAMKESLNQMNDKLQQILKDTGKQLEESGLLEKALNGIKNVLVDIKDFLVNMFSSASEKVKDGITYDENGNIVIKTGNNSDESKNEESIQDKPQTQSNDNNQNQENEQGQNQTKEGHHHHHH
MLASIVISSVHSIGTGALECRATHRGHRAGPYLSSSETRHRAAISGTVDMRETKQGLRHSGRSPSVASPKIDELIGRPQPDTIRLSRGRPVRNS
MSWMDKFDPKLQTMVKEVDAQIAPQLAKIDARILENQNKVLTSFQNHHVAESYLTGSTGYGHNDEGRDVLEAIYADVLGGEDALVRPQFVSGTHAIGVALLGLVRPGDDIVYITGKPYDTLQEVLGLAGNGIGAPQEYGIGVDYVDLLPNGAVDDDAVKARLNDKTKVVAIQRSRGYATRDSFTVDQIAAMIKVVRSVLPNVWIFVDNAYGEVSETKEPLEVGADVMAGSLFKNAGGGMAKTGGYIVGKKDLIDRISYRFTVPGLGGAEGATVGALADMYQGFFISPQTTGNAIKGAIFEAALFAKLGLDVSPAWDAPRTDLIQTVNFGNADDMVKFAKAVQANSPVDSFVTPIPEKMAGYEDQVIMAGGTFVAGSTIEFSGDGPLRPPYTLYLQGGLTYAHIKLATMGAAQSTFFDNLEHHHHHH
MGSDKIHHHHHHMAVQDLLSQDEIDALLHGVDDGMVQTDIASEPGSVKSYDLTSQDRIVRGRMPTLEMINERFARYTRISMFNLLRRSADVAVGGVQVMKFGEYVHSLYVPTSLNLAKIKPLRGTALFILDAKLVFKLVDNFFGGDGRHAKIEGREFTPTELRVVRMVLDQAFIDLKEAWQAIMEVNFEYINSEVNPAMANIVGPSEAVVISTFHIELDGGGGDLHVTMPYSMIEPIREMLDAGFQSDLDDQDERWVNALKEDVLDVNVPLTTTIAQRQLPLRDILHMRPGDVIPVELSDTLVLRANGVPSFKVKLGSHKGKMALQVIEPIARR
MMNASTKFSDNYDVKEELGKGAFSVVRRCVHKTTGLEFAAKIINTKKLSARDFQKLEREARICRKLQHPNIVRLHDSIQEESFHYLVFDLVTGGELFEDIVAREFYSEADASHCIQQILESIAYCHSNGIVHRDLKPENLLLASKAKGAAVKLADFGLAIEVNDSEAWHGFAGTPGYLSPEVLKKDPYSKPVDIWACGVILYILLVGYPPFWDEDQHRLYAQIKAGAYDYPSPEWDTVTPEAKSLIDSMLTVNPKKRITADQALKVPWICNRERVASAIHRQDTVDCLKKFNARRKLKAAISAVKMVTRMSGVLRTSDSTGSVASNGSTTHDASQVAGTSSQPTSPAAEGAILTTMIATRNLSNLGRNLLNKKEQGPPSTIKESSESSQTIDDNDSEKGGGQLKHENTVVRADGATGIVSSSNSSTASKSSSTNLSAQKQDIVRVTQTLLDAISCKDFETYTRLCDTSMTCFEPEALGNLIEGIEFHRFYFDGNRKNQVHTTMLNPNVHIIGEDAACVAYVKLTQFLDRNGEAHTRQSQESRVWSKKQGRWVCVHVHRSTQPSTNTTVSEF
MQEGYREYRDIHARLNLPLLETGALVAAWSDEDLARLPAIVEQAHGNGVDDVRQVGRDEVLALEPQLAGNVLGAVRVPGEHLVDPWSAPLAYLQQALAHGAEACFDVEVLDGAFDGGEWLLHTRRGDLRASQVINCAGLFGDQLEQRLLGAASFAIHPRKGQFVVFDKAAAALLRHILLPVPNERTKGVVFTRTVFGNLLAGPTAEEQDDREQARVDSDTLQRLIDAAVERIPGLRGMPVTATYAGLRPASEKKEYRIRQVDGRNWISVGGIRSTGLTAALGIARHVYRLYQGERFHEAVREPLWPQVPNLAEHLPRDWQRPGYDEIVCHCEMVTRREILAALEGPLPAGDFGGLKRRTRACMGRCQGFYCNARVAELSAGRLAQPLATGSCHEHH
MVNRFREKLKPDQYLCRIEGTQFVLVSLENDVSNITQIADELRNVVSKPIMIDDNPFPLTLSIGISYDVGKNRDYLLSTAHNAMDYIRKNGGNGWQFFSPAMNEMVKERLVLGAALKEAISNNQLKLVYQPQIFAETGELYGIEALARWHDPQHGHVPPSRFIPLAEEIGEIENIGRWVIAEACRQLAEWRSQNIHIPALSVNLSALHFRSNQLPNQVSDAMQAWGIDGHQLTVEITESMMMEHDTEIFKRIQILRDMGVGLSVDDFGTGFSGLSRLVSLPVTEIKIDKSFVDRCLTEKRILALLEAITSIGQSLNLTVVAEGVETKEQFEMLRKIHCRVIQGYFFSRPLPAEEIPGWMSSVLPLKI
MSLQVFGVSRSGYYNWVQHEPSDRKQSDERLKLEIKVAHIRTRETYGTRRLQTELAENGIIVGRDRLARLRKELRLRCKQKRKFRATTNSNHNLPVAPNLLNQTFAPTAPNQVWVADLTYVATQEGWLYLAGIKDVYTCEIVGYAMGERMTKELTGKALFMALRSQRPPAGLIHHSDRGSQYCAYDYRVIQEQFGLKTSMSRKGNCYDNAPMESFWGTLKNESLSHYRFNNRDEAISVIREYIEIFYNRQRRHSRLGNISPATFREKYHQMAAEGHHHHHH
MGSDKIHHHHHHMKLAKKYYAVRKGRVPGIYKTWKEAEEQVKGFPGAEYKSFERLEDAKAYMEGKNECICPELDTETMIAYVDGSYDEVCGSGIVLCYRGKKEEYYFWTNIEEFKDSRNITGEIMAALFAMDYALKKGARKLVLRYDLEGLEKWATEEYRTNKLVTKVYRHYYRKFCQMGLKVVFEKIKSHSGNFCNDEADSLAKKASKKESNVEWMPEDFESIIRTLTKKGGCL
MLKTAYQRSPKQELAKNTPFFNETDLKHSFIIDFENQEFIHHQAEPLNYLFYLIKGKAKILKTERNGRQSIVQFLTAGDLIGDLTLVQAETITKDVIALGETCCLAVPLAYAETVLKNKVLFMQQLSHYLGKKMLQRVDHFTTNQTYELSYRLAELLLVAANHEDVYKEKHTEIAEYLGVSYRHLIYTFKQFRERGFIQKQGTAYHINRLALHSFVQKMKS
